Measurements from article PMC10786891, “Massively parallel profiling of RNA-targeting CRISPR-Cas13d”.
Changes are numbered by the printed parent chain. Names may count otherwise.

T1: EsCas13d, nuclease-dead (Eubacterium siraeum, UniProt B0MS50, R295A;H300A;R849A;H854A)
T1 sequence: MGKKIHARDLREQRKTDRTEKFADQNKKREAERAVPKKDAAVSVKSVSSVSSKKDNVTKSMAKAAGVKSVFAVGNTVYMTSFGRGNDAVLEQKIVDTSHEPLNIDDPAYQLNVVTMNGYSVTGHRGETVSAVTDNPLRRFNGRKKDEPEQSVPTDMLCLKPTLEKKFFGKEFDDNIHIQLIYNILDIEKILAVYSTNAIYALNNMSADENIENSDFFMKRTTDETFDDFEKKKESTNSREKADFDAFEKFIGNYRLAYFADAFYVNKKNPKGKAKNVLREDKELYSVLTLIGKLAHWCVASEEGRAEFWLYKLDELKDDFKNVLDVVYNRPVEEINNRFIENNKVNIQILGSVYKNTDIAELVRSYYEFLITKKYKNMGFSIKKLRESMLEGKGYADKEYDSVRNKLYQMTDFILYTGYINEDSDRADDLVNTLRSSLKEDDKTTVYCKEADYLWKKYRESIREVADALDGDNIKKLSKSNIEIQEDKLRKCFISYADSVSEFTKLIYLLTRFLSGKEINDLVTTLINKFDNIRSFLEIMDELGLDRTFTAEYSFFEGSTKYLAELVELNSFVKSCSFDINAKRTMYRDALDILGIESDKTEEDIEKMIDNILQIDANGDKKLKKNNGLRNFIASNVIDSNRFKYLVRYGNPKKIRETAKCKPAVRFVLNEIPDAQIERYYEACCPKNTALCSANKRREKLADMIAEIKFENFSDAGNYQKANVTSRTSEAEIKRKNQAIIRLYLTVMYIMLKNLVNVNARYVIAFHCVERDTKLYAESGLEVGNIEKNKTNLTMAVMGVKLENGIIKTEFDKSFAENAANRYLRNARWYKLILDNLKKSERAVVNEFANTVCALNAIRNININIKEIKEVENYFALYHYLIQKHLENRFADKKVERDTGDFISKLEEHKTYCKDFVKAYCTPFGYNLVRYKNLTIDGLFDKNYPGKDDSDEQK

B1: target 3 insU 3' of 22,insA 3' of 21 (mixed)
RNA 1: CACCCGUGCAAAAUUGCAGGGGUCUAAAACGACCUGAAUAUUUCAGAUCAAA
RNA 2: GGGAAUGGAUCCACAUCUACGAAUUCGUUUUUAUGAUCUGAAAUAUUCAGGUCUGCAGAUCGGAAGAGCACACGU
B2: target 3 insG 3' of 11,insU 3' of 4 (mixed)
RNA 1: B1 RNA 1
RNA 2: GGGAAUGGAUCCACAUCUACGAAUUCGUUUUUGAUCUGAAAGUAUUCAGUGUCUGCAGAUCGGAAGAGCACACGU
B3: target 3 insG 3' of 6,insC 3' of 5 (mixed)
RNA 1: B1 RNA 1
RNA 2: B2 RNA 2 with G42U, U43A, A44U, U46C, C47G, G49C, U50G
B4: target 3 G3U,G4C (mixed)
RNA 1: B1 RNA 1
RNA 2: GGGAAUGGAUCCACAUCUACGAAUUCGUUUUUGAUCUGAAAUAUUCACUUCUGCAGAUCGGAAGAGCACACGU
B5: target 3 G4C,A12U (mixed)
RNA 1: B1 RNA 1
RNA 2: B4 RNA 2 with A40U, U49G
B6: target 3 insG 3' of 16,insA 3' of 2 (mixed)
RNA 1: B1 RNA 1
RNA 2: B2 RNA 2 with U37G, G38U, A39G, G42A, U50G, G51U, U52A
B7: target 3 U2C,U7G (mixed)
RNA 1: B1 RNA 1
RNA 2: B4 RNA 2 with U45G, C48G, U49G, U50C
B8: target 3 G4U,U8G (mixed)
RNA 1: B1 RNA 1
RNA 2: B4 RNA 2 with U44G, C48U, U49G
B9: target 3 C1A,U7A (mixed)
RNA 1: B1 RNA 1
RNA 2: B4 RNA 2 with U45A, C48G, U49G, C51A
B10: target 3 del5 (mixed)
RNA 1: B1 RNA 1
RNA 2: GGGAAUGGAUCCACAUCUACGAAUUCGUUUUUGAUCUGAAAUAUUCGGUCUGCAGAUCGGAAGAGCACACGU
B11: target 3 insA 3' of 17,insA 3' of 15 (mixed)
RNA 1: B1 RNA 1
RNA 2: B1 RNA 2 with A33G, U34A, G35U, U37C, C38U, U39A
B12: target 3 insA 3' of 22,insU 3' of 4 (mixed)
RNA 1: B1 RNA 1
RNA 2: B2 RNA 2 with U31A, G33U, A34G, U35A, C36U, U37C, G38U, A39G, G42A
B13: target 3 G4C,U21A (mixed)
RNA 1: B1 RNA 1
RNA 2: B4 RNA 2 with U31A, U49G
B14: target 3 G4U,U7A (mixed)
RNA 1: B1 RNA 1
RNA 2: B4 RNA 2 with U45A, C48U, U49G
B15: target 3 insU 3' of 22,insU 3' of 22 (mixed)
RNA 1: B1 RNA 1
RNA 2: B1 RNA 2 with A33U
B16: target 3 C1U,G3U (mixed)
RNA 1: B1 RNA 1
RNA 2: B4 RNA 2 with C48G, C51U
B17: target 3 insC 3' of 2,insU 3' of 1 (mixed)
RNA 1: B1 RNA 1
RNA 2: B2 RNA 2 with G42U, U43A, A44U, U46C, C47A, A48G, G51C, U52C, C53U
B18: target 3 G19A,U20G (mixed)
RNA 1: B1 RNA 1
RNA 2: B4 RNA 2 with U32G, G33A, C48G, U49G
B19: target 3 insA 3' of 22,insG 3' of 1 (mixed)
RNA 1: B1 RNA 1
RNA 2: GGGAAUGGAUCCACAUCUACGAAUUCGUUUAUUGAUCUGAAAUAUUCAGGUCGUGCAGAUCGGAAGAGCACACGU
B20: target 3 G3U (mixed)
RNA 1: B1 RNA 1
RNA 2: B4 RNA 2 with C48G
B21: target 3 insA 3' of 8,insC 3' of 4 (mixed)
RNA 1: B1 RNA 1
RNA 2: B2 RNA 2 with G42U, U43A, A44U, U45A, U50C
B22: target 3 C1A,G3U (mixed)
RNA 1: B1 RNA 1
RNA 2: B4 RNA 2 with C48G, C51A
B23: target 3 C1U (mixed)
RNA 1: B1 RNA 1
RNA 2: B4 RNA 2 with C48G, U49G, C51U
B24: target 3 C6U,A11C (mixed)
RNA 1: B1 RNA 1
RNA 2: B4 RNA 2 with A41C, C46U, C48G, U49G
B25: target 3 insC 3' of 7,insC 3' of 5 (mixed)
RNA 1: B1 RNA 1
RNA 2: B2 RNA 2 with G42U, U43A, A44U, U46C, G49C, U50G
B26: target 3 insG 3' of 8,insG 3' of 7 (mixed)
RNA 1: B1 RNA 1
RNA 2: B2 RNA 2 with G42U, U43A, A44U, U45G, C47G, A48C, G49A, U50G
B27: target 3 C1U,A12G (mixed)
RNA 1: B1 RNA 1
RNA 2: B4 RNA 2 with A40G, C48G, U49G, C51U
B28: target 3 insG 3' of 9,insA 3' of 7 (mixed)
RNA 1: B1 RNA 1
RNA 2: B2 RNA 2 with G42U, U43A, A44G, C47A, A48C, G49A, U50G
B29: target 3 insG 3' of 9,insG 3' of 5 (mixed)
RNA 1: B1 RNA 1
RNA 2: B2 RNA 2 with G42U, U43A, A44G, U50G
B30: target 3 C6A,U22G (mixed)
RNA 1: B1 RNA 1
RNA 2: B4 RNA 2 with U30G, C46A, C48G, U49G
B31: target 1 A20U,C21A (mixed)
RNA 1: CACCCGUGCAAAAAUGCAGGGGUCUAAAACUGAGCGGAUAACCUCUCUAUGG
RNA 2: GGGAAUGGAUCCACAUCUACGAAUUCGUACAUUAGAGAGGUUAUCCGCUCACCGAGAUCGGAAGAGCACACGU
B32: target 1 insC 3' of 20 (mixed)
RNA 1: B31 RNA 1
RNA 2: GGGAAUGGAUCCACAUCUACGAAUUCGUACCACUAGAGAGGUUAUCCGCUCACCGAGAUCGGAAGAGCACACGU
B33: target 1 C2A,G13C (mixed)
RNA 1: B31 RNA 1
RNA 2: B31 RNA 2 with A31C, U32A, G39C, C50A

Target: T1, EsCas13d, nuclease-dead
Test: crRNA (strand 1, pre-loaded); Mg2+; 40 mM Tris-HCl pH 7.5, 150 mM NaCl, 6 mM MgCl2, 1 mM DTT, 0.1% Tween-20, 0.2 mg/ml BSA; 25 C; 10 min per concentration, then washed
Details: tags: His6-TwinStrep-SUMO cleaved; N-terminal SNAP kept (SNAP-Surface 488); label: 3' end held by stalled T7 RNA polymerase

Binder | Kd [nM]
B1 | 28 ± 4
B2 | 55.5 ± 10.5
B3 | 11.4 ± 1.1
B4 | 10.5 ± 1
B5 | 110 ± 45
B6 | 75 ± 30
B7 | 86 ± 33
B8 | 16.4 ± 2.35
B9 | 28.5 ± 14
B10 | 65.5 ± 12.5
B11 | 36.9 ± 8.1
B12 | 4.56 ± 0.52
B13 | 87 ± 16
B14 | 10.4 ± 1.4
B15 | 24.1 ± 3
B16 | 45.5 ± 11.5
B17 | 82.5 ± 27.5

Binder | Kd [nM]
B18 | 55 ± 8
B19 | 34.5 ± 7.5
B20 | 22.9 ± 2.2
B21 | 61.5 ± 9.5
B22 | ~75
B23 | 25.1 ± 3.15
B24 | 63 ± 17.6
B25 | 108 ± 18.5
B26 | 37.4 ± 3.15
B27 | 60 ± 13.5
B28 | 43.5 ± 5.5
B29 | 60 ± 13.5
B30 | 108 ± 25
B31 | 29 ± 5
B32 | 6.4 ± 0.4
B33 | 50 ± 5
